Consider three molecules from patent US20240092897A1 (SHANGHAI JMT BIO TECHNOLOGY, published 2024).

In assay [1] the target is T1, Human Siglec-15, His Tag (human Siglec-15 full-length extracellular domain linked with His tag) (human, UniProt Q6ZMC9 20-263).
T1 construct: Bought from ACROBiosystems; also called Siglec-15 protein; SG5-H52H3
T1 sequence: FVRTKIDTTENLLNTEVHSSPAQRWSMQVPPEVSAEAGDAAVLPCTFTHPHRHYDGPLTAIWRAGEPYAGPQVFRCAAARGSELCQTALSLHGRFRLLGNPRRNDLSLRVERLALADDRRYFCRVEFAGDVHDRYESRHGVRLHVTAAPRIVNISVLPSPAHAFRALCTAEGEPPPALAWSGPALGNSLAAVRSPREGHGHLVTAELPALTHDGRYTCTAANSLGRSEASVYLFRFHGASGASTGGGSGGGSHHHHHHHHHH
The experiment in a line: Octet BLI epitope binning, Siglec-15 His on HIS1K sensor; competitor 75E1F2. Here is the method:
(§1) Epitope binning assays were performed using the Octet RED96e (ForteBio) System for the antibodies tested. Human Siglec-15, His Tag (Cat. No. SG5-H52H3) (5 μg/mL) was captured by the HIS1K biosensor and bound to primary antibody (100 nM) for 180 s. Then, the Human Siglec-15, His Tag (antigen)-primary antibody was bound to secondary antibody (100 nM) on the biosensors for 90 s. Data analysis was performed using Octet RED96e (ForteBio) analysis software.
For orientation: BLI is a label-free optical method that tracks binding on a fibre tip over time.

Assay [2] has as its target T1, Human Siglec-15, His Tag (human …). The experiment in a line: SPR Biacore, antibody captured by anti-human Fc on CM5, Siglec-15 protein as analyte. On the technique in general: SPR reads the build-up and loss of mass on a sensor chip optically.
For assay [3] the target is unchanged. The experiment in a line: SPR Biacore 8K, antibody captured by anti-human Fc, Siglec-15 His as analyte. Here is the method: Affinity analysis was performed using Biacore8K, and a CM5 chip immobilized with anti-human Fc antibody was used to capture the antibodies tested. The stock solutions of the antibodies to be tested were diluted to 5 μg/mL, and injected sequentially into the experimental channels at a flow rate of 10 μL/min at about 500 RU. The analyte was Human Siglec-15, His Tag (Cat. #SG5-H52H3), the diluted human Siglec-15 protein was injected sequentially into the experimental channels and the control channel at a flow rate of 30 μL/min and allowing for a binding time of 150 s and a dissociation time of 700 s. The KD value of each antibody was calculated using Biacore 8K analysis software.

Assay [4] shares this target. The experiment in a line: Octet BLI epitope binning, Siglec-15 His on HIS1K sensor; competitor 255C12B10. How it is done: as §1
The target in assay [5] is T2, Human Siglec-15 overexpressed on HEK293T cells (HEK293T-hu-S15) (human, UniProt Q6ZMC9 20-328).
T2 construct: whole, on cells; also called HEK293T-hu-S15 cell line
T2 sequence (looked up): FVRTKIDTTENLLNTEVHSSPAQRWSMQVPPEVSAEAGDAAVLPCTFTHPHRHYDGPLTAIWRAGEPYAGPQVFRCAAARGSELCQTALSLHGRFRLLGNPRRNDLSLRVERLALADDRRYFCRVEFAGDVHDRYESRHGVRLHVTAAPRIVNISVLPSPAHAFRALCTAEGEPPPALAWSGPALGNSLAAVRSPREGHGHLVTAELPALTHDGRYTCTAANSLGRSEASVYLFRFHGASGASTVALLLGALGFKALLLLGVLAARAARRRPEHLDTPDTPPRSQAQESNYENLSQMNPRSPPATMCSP
The experiment in a line: flow cytometry on HEK293T-hu-S15 cells, detection with anti-human IgG (Fc specific)-FITC, average fluorescence intensity. How it is done: HEK293T cell line overexpressing Siglec-15 (HEK293T-hu-S15) was purchased from KYinno Biotechnology Co., Ltd (Beijing, China) under Catalog #KC-1314. Purified anti-Siglec-15 chimeric antibodies were diluted at a gradient of 100 nM and incubated with HEK293T-hu-S15 cells at 4° C. for 30 min. Flow cytometry was performed after addition of anti-human IgG (Fc specific)-FITC (cat. #F9512) and incubation for 30 min.

For assay [6], the target named is T3, Cynomolgus Monkey Siglec-15 full-length extracellular domain linked with His tag (Cynomolgus Monkey).
T3 construct: Bought from ACROBiosystems; also called SG5-052H6
T3 chain: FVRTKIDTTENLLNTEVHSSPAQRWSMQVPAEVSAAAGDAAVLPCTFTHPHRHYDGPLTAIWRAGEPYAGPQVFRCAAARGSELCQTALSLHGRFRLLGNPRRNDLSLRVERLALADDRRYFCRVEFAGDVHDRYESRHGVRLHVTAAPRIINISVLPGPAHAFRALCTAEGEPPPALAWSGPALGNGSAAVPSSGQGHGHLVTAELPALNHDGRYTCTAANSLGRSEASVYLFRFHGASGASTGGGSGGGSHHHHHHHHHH
The experiment in a line: ELISA, coated antigen. Here is the method: (§2) The variable regions from the antibodies produced by the hybridomas were combined with human IgG1 (N297A) constant regions to generate chimeric antibodies, named as 21F6C6, 75E1F2, 124B11F6, 174C11C9, and 255C12B10, respectively. Binding activity assays were performed on the chimeric antibodies using Siglec-15 proteins from different species, in which human, mouse and Cynomolgus Monkey Siglec-15 proteins were purchased from ACROBiosystems (Beijing, China). Antigen was coated at 0.5 μg/ml, and antibodies were diluted starting from 1 μg/ml and incubated with antigen. Horseradish peroxidase-labeled Anti-Human IgG antibody was used as the secondary antibody and OD₄₅₀ values were read after adding the substrate.
In general terms: An ELISA detects its analyte on a solid surface through an enzyme-linked reagent.

Assay [7] deals with T4, Mouse Siglec-15 full-length extracellular domain linked with His tag (mouse).
T4 construct: Bought from ACROBiosystems; also called SG5-M52H7
T4 chain: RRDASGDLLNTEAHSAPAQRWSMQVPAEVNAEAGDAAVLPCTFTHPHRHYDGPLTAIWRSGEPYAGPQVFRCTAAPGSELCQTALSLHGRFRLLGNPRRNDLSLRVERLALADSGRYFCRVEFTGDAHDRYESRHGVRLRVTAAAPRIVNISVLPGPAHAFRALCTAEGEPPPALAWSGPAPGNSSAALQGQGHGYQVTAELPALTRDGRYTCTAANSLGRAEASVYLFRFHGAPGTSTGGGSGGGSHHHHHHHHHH
The experiment in a line: ELISA, coated antigen. Here is the method:
as §2

Assay [8] addresses T1, Human Siglec-15, His Tag (human …). The experiment in a line: ELISA, coated antigen. How it is done: as §2
For assay [9] the target is unchanged. The experiment in a line: Octet BLI epitope binning, Siglec-15 His on HIS1K sensor; competitor 124B11F6. Here is the method:
as §1

For assay [10] the target is unchanged. The experiment in a line: Octet BLI epitope binning, Siglec-15 His on HIS1K sensor; competitor 21F6C6. How it is done:
as §1

For assay [11] the target is unchanged. The experiment in a line: Octet BLI epitope binning, Siglec-15 His on HIS1K sensor; competitor 174C11C9. How it is done: as §1

B1: 174C11C9 chimeric antibody (antibody, human IgG1, V domains shown)
VH: EVQLQQSGPVLVKPGASVKMSCEASGYIFTDYYMNWVKQSPGKSLEWIGVFNPYSGGISYNQKFKGKATLTVDTSSSTAYMELNSLTSEDSAVYYCARDYYYLSSHGFYALDYWGQGTSVTVSS
VL: DIVLTQSPASLAVSLGQRATISCRASESVDSYGNSFIHWYQQRPGRPPKLLMYRASNLESGIPARFSGSGSRTDFTLTIDPVEADDVATYYCQQSNEDPLTFGAGTKLELK
notes: also called 174C11C9-mHL
The term Kd denotes the free concentration of one partner at which half of the binding sites on the other are occupied at equilibrium, for simple one-to-one binding. As a reminder, the koff is a measure of how fast the partners let go of each other. A word on the kon: it is the rate constant with which the complex forms. By EC50 is commonly meant the concentration needed to bring the measured effect to its halfway point. As for B1, the cross-competition score in assay [1] was 4.2%; in assay [4], 52.4%; in [9], 73.4%; in [10], 7.68%. Further, the Kd is 0.175 nM in [2] and 0.305 nM in assay [3]. The values for the koff in [2] and in assay [3] were 0.000305 s⁻¹ and 0.00037 s⁻¹, respectively. Also, the kon was found to be 1.74e+06 M⁻¹ s⁻¹ in [2] and 1.21e+06 M⁻¹ s⁻¹ in assay [3]. The concentration giving a half-maximal response (EC50) in assay [5] worked out at 1.59 nM; in assay [6], 7.48 ng/mL; in [7], 9.85 ng/mL; in [8], 5.22 ng/mL.

B2: 255C12B10 chimeric antibody (antibody, V domains shown)
VH: EVQLQQSGPELVKPGASVKMSCKASGYTFTGYNMNWVKQSHGKSLEWIGYINPNNGGTRYNQKFKGKATLTINKSSSTAYMELRSLTSEDSAVYYCARDYGIDYWGQGTTLTVSS
VL: EIQMTQSPSSMSASLGDRITITCQATQDIVKNLNWYQQKPGKPPSFLIYYATELAEGVPSRFSGSGSGSDYSLTISNLESEDFADYYCLQFYEFPYTFGGGTKLEIK
notes: Mouse variable regions combined with human IgG1 (N297A) constant regions
As for B2, the cross-competition score was 11.4% in assay [1], 18.3% in [11], 18.9% in assay [9] and 20.4% in assay [10]. This molecule showed a Kd in assay [3] of 0.536 nM. For the same molecule, the koff in [3] was 0.000158 s⁻¹. For the same molecule, the kon in [3] came to 296000 M⁻¹ s⁻¹. In addition, the EC50 in [5] came out at 3.77 nM; in assay [6], 5.46 ng/mL; in [7], 22.8 ng/mL; in [8], 5.62 ng/mL.

B3: 124B11F6 chimeric antibody (antibody, human IgG1, V domains shown)
VH: EVQLQQSGAELVRPGASVKLSCTASVFNIKDYYMHWVKQRTEQGLEWIGRIDPEDDKTKYAPKFQGKATITADTSSNTAYLHLSTLTSEDTAVYYCVRGWLGYIMDFWGQGTSVTVSS
VL: QLVLTQSSSASFSLGASAKLTCTLSSQHSTYTIDWYQQQPLKPPKYVMELKEDGSHSTGDGIPDRFSGSSSGADRYLGISNIQPEDEAVYICGVGATIKEQFVYVFGGGTKVTVL
notes: also called 124B11F6-mHL
With B3, the cross-competition score in assay [1] was 22.7%; in [4], 44.9%; in assay [11], 79.5%; in assay [10] it was 108%. In addition, the figures for the Kd in assay [2] and in assay [3] were 0.0834 nM and 0.00143 nM, respectively. The values for the dissociation rate constant (koff) in [2] and in assay [3] were 0.000114 s⁻¹ and 1.46e-07 s⁻¹, respectively. Further, the results for the kon in [2] and in [3] were 1.37e+06 M⁻¹ s⁻¹ and 102000 M⁻¹ s⁻¹, respectively. The concentration giving a half-maximal response (EC50) in assay [5] worked out at 9.44 nM; in [6], 16 ng/mL; in [7] it was 21.2 ng/mL; in assay [8] it was 21.6 ng/mL.
